The values below are quoted from earlier work in PMC5116031.

As usually defined, the Kd is the free concentration of one partner at which half of the binding sites on the other are occupied at equilibrium, for simple one-to-one binding.

This series addresses BECN1 CCD (Rattus norvegicus) (UniProt Q91XJ1).

Sequence of BECN1 CCD (Q91XJ1 174-266): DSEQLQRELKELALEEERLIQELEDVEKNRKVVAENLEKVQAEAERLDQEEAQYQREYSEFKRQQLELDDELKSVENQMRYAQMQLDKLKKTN

In the case of BECN1 CCD (from UniProt Q91XJ1), the Kd is 89 µM.
